Results: the supplement of paper PMC10567573

B1: ANKRD17 (parent)
chain: EMVRFLLEAGADQEHKTDEMHTAL
B2: DLC1 (parent)
chain: AEVVKIRDSFSNQNTETKDTKSR

Variants of: B1
Assay: protein stability index of a GFP-peptide fusion (GPS, HEK-293T) (PSI 1-6); higher = more stable
Details: c terminus: a fixed tail appended
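Also: lentivirally expressed fusions sorted by FACS into six bins by GFP to DsRed ratio, PSI derived from sequencing read proportions per bin multiplied by bin number.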

Protein stability index, by site and new letter:
T22: R 2.5, D 2.75, H 2.39
R4: K 3.22, P 4.8, G 3.86, Q 3.61
A23: N 3.01
L6: M 3.75, A 4.45
M2: N 5.32, I 1.93
A11: D 3.21, Q 2.58
D18: E 3.16, H 2.01, W 2.44
G10: D 3.13, Y 1.72, C 2.13, P 3.73, S 2.03
M20: Q 3, V 2.84, C 2.48, N 3.59
A9: N 2.92, H 2.58
E19: L 2.29, H 2.22, G 1.71
H21: C 3.21, P 2.54, N 3.05, D 2.96
E14: F 1.9, Y 1.44, H 2.01
D12: N 2.17, R 2.05, Q 2.66
E8: P 3.11, T 2.63, M 2.62, K 2.71, Q 2.67, I 2.07
V3: T 4.51, D 5.21, R 4.56, Q 4.44, I 3.11, N 4.47
T17: Y 2.33, I 2.16, N 2.21, A 2.45, V 2.37, M 2.71
H15: Q 3, R 2.44
K16: D 3.54, Y 2.22
L24: M 2.37, H 2.78
E1: P 4.17, A 2.3, N 3.37, D 2.82
L7: F 3.31, G 4.76
F5: C 3.77, T 4.38, L 2.56, E 4.71, Y 2.25
Q13: S 2.94, L 2.03, W 2.27

Variants of: B2
Assay: as above
Details: c terminus: native

Protein stability index: each site, then its substitutions
K21: L 4.19, A 5.24, I 4.85, F 4.8, N 5.59, P 3.51, V 4.89, G 5.44, S 5.01, M 4.99, R 1.71, D 5.42, T 4.87, Y 3.57, H 2.96, E 5.2, Q 4.95, C 4.39, W 3.92
S11: K 3.15, D 2.05, M 1.46, Y 2.65, F 2.85, A 1.9, C 2.58, Q 2.62, N 4.69, V 2.35, R 2.78, L 1.88, T 2.48, G 2.36, P 2.54, W 1.88, E 2.4, H 2.61, I 1.9
N12: M 2.5, K 2.17, S 1.86, V 1.68, F 1.81, P 1.95, A 2.33, I 2.17, E 2.71, T 2.23, C 1.63, Q 2.03, R 1.7, G 2.51, Y 1.78, L 3.05, H 2.44
T17: H 1.73, D 1.83, R 1.84, P 2.97, K 2.17, E 2.43, F 2.54, W 3.5, G 4.08, L 2.34, A 2.22, V 1.26, I 2.41, N 1.86, M 2.68, C 2.11, Y 2.31, Q 2.61
E16: P 2.41, K 3.12, N 2.27, A 2.43, H 3, G 2.38, W 1.95, M 1.51, I 1.97, D 3.35, V 3.04, Q 3.17, T 2.06, F 3.13, Y 1.31, S 1.9, R 2.31, C 1.84, L 1.91
N14: G 2.08, V 1.66, F 1.93, P 3.12, Q 2.37, D 2.33, W 2.37, S 1.96, K 2.44, C 2.16, A 1.86, H 2.46, T 2.55, R 2.48, I 2.08, E 2.24, L 2.09
F10: D 4, R 4.5, N 3.64, G 4.24, L 3.26, I 2.32, H 3.71, S 4, M 2.93, P 3.63, Y 2.53, K 4.18, E 3.46, Q 3.46, T 3.68, V 2.95
Q13: L 2.31, E 2.9, F 2.26, K 1.77, R 3.77, G 2.33, Y 2.92, V 3.62, P 2.4, T 2.45, A 2.41, W 2.36, M 1.94, S 1.87, D 2.37, C 1.93, H 2.32, N 2.56
K18: T 2.2, R 1.5, E 1.7, I 2.26, Y 1.94, N 1.98, F 2.59, G 2.13, M 1.91, W 2.05, H 2.98, D 1.39, L 3.07, S 1.98, Q 1.84, V 2.32, C 2.84, P 2.15, A 1.17
S22: A 1.93, W 3.96, F 4.11, G 1.89, Y 3.36, T 3.04, I 3.14, D 3.23, K 2.92, P 4.53, C 1.82, L 3.48, Q 3.03, M 4.06, E 3.8, H 3.48, V 2.98, R 2.75, N 2.88
T20: I 2.7, K 4.33, F 1.36, P 2.88, Q 2.42, M 1.96, G 2.51, D 2.23, H 2.09, C 1.93, L 2.71, S 1.79, V 2.61, E 1.64, A 1.79, N 3.98, Y 2.1, R 4.41
T15: W 2.05, P 2.08, K 2.21, V 2.38, D 3.36, F 2.36, S 2.75, L 2.17, Q 2.98, G 4.39, H 1.77, I 1.62, E 3.38, M 1.86, Y 1.62, C 2.08, N 2.52, R 1.67, A 2.14
D19: I 2.29, S 2.19, N 3.63, K 1.85, Q 1.99, V 1.91, R 1.84, T 3.09, C 1.83, G 2, A 1.79, M 1.95, E 2.31, F 1.92, H 2.07, W 1.45, L 2.1, Y 2.69, P 3.03
R23: Q 5.65, V 5.51, A 5.57, C 4.75, W 3.23, L 5.49, T 5.55, Y 4.56, F 4.83, I 4.91, D 5.6, H 5.37, E 5.85, M 5.38, N 5.26, P 5.32, G 4.84, K 5.49
